Data on 7 substances can be found in paper PMC3813429.

pKd: −log10 of the molar value.

For experiment [1], the target named is HaALP, membrane bound alkaline phosphatase of Helicoverpa armigera (Helicoverpa armigera (endogenous in larval midgut)). As to the kind of experiment: SPR. In general terms: In SPR one partner is held on a chip, and binding of the other changes the refractive index at the surface.
Experiment [2] has the same target.

In general, pKd refers to the negative decadic logarithm of the Kd, by convention in mol/L. A higher pKd goes with a small Kd. As a reminder, the koff is the rate constant with which the complex falls apart. A lower koff goes with a long-lived complex. Broadly, the kon is the rate constant with which the complex forms. Higher therefore signals fast association. In experiment [1], “Cry1Ac triple mutant (Q509A-N510A-R511A) (domain or fragment)” showed a pKd of 6.58, a koff of 0.00269 s⁻¹ and a kon of 10200 M⁻¹ s⁻¹.
For “Cry1Ac tetra mutant (Q509A-N510A-R511A.Y513A) (domain or fragment)”, in that order: 5.62, 0.000184 s⁻¹ and 75 M⁻¹ s⁻¹.
For Cry1Ac R511A (domain or fragment) the same measures were 7.49, 0.00179 s⁻¹ and 55800 M⁻¹ s⁻¹.
For Cry1Ac Q509A (domain or fragment), in that order: 7.53, 0.00571 s⁻¹ and 193000 M⁻¹ s⁻¹.
Cry1Ac W545A (domain or fragment) gave an LC50, insect bioassay on H. armigera neonates (toxin on artificial diet surface, 5 days) in experiment [2] of 34.1 µg/mL. For the same substance, in experiment [1], the pKd was 5.15, the koff stood at 0.00688 s⁻¹ and the kon stood at 963 M⁻¹ s⁻¹.
Regarding Cry1Ac Y513A (domain or fragment), in experiment [1], the pKd was 6.65, the koff worked out at 0.00147 s⁻¹ and the kon came to 6610 M⁻¹ s⁻¹.
For Cry1Ac N510A (domain or fragment), in that order: 7.23, 0.00136 s⁻¹ and 23200 M⁻¹ s⁻¹.
